Laboratory results from the supplement of paper PMC10126150.
± gives the standard deviation of the averaged measurements.

System: ATP
Assay: switch fluorescence ratio, 500 uM ATP over buffer (Cy3 cluster intensity, sum of 5 cycles each) (fold (ratio)); higher = stronger signal-on switching upon ATP binding; sequences stand for … in TCGTCGGCAGCGTCAGATGTGTATAAGAGACAGTTTTTTTTTTTTTTTTTTTTTTTTT…TC
Conditions: aptamer strand: ATP DNA aptamer (quencher-CACCTGGGGGAGTATTGCGGAGGAAGG + anchor), 100 nM annealed; ATP concentration: 500 uM
Procedure, shortened: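 Values give the fluorescence ratio for each switch-domain sequence, averaged from per-cluster ratios of summed target-cycle to summed buffer-cycle Cy3 intensity. The Cy3-labelled switching-strand clusters sat on a modified Illumina MiSeq flow-cell, were annealed to 100 nM quencher-labelled ATP aptamer, and were imaged in selection buffer, then after 15 min with 500 uM ATP at 22 °C. Five cycles ran with NaOH stripping and re-annealing between them, and clusters outside 100-1000 RFU were excluded.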
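Note: ATP exposure 15 min at 22 °C before imaging.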

Sequence	switch fluorescence ratio
GTTGGGGGCC	0.997 ± 0.013
GTTGGGGGTA	0.999 ± 0.028
GTTGGGGGTG	0.992 ± 0.037
GTTGGGGTGC	1.01 ± 0.028
GTTGGGTATA	0.996 ± 0.014
GTTGGGTCAT	1.01 ± 0.045
GTTGGGTGAG	0.987 ± 0.02
GTTGGGTGGG	0.984 ± 0.013
GTTGGGTTGG	1 ± 0.033
GTTGGTCTGG	0.943 ± 0.048
GTTGGTGACG	1.048 ± 0.0055
GTTGGTGTTG	0.998 ± 0.032
GTTGGTTTTT	0.975 ± 0.027
GTTGTAAAAA	0.968 ± 0.046
GTTGTAGGGT	0.976 ± 0.022
GTTGTCCTTG	1.01 ± 0.015
GTTGTCGGGG	1.02 ± 0.018
GTTGTGAGCG	1.01 ± 0.048
GTTGTGCGGG	1.02 ± 0.0089
GTTGTGGGGA	1.02 ± 0.023
GTTGTGTCTG	0.979 ± 0.013
GTTGTGTTTG	0.998 ± 0.022
GTTGTTACAA	1.004 ± 0.0092
GTTGTTAGCG	1 ± 0.037
GTTGTTATTT	1 ± 0.011

Sequence	switch fluorescence ratio
GTTTAAAAGC	0.9842 ± 0.0061
GTTTAAACGC	1.01 ± 0.026
GTTTAAAGGG	0.998 ± 0.013
GTTTAAATAG	1.04 ± 0.011
GTTTAAGAAA	0.998 ± 0.027
GTTTAAGTTC	0.988 ± 0.017
GTTTAATTGC	0.995 ± 0.049
GTTTAATTTT	0.987 ± 0.033
GTTTACGTTC	1.02 ± 0.049
GTTTAGATG	0.989 ± 0.022
GTTTATAGGG	0.985 ± 0.025
GTTTATGCAC	1.06 ± 0.084
GTTTATGGGT	1.023 ± 0.009
GTTTATGGTT	1 ± 0.022
GTTTATTCGA	0.989 ± 0.014
GTTTATTGTT	1 ± 0.047
GTTTATTTCT	1.02 ± 0.049
GTTTCAAGAT	0.994 ± 0.044
GTTTCCAGTT	1.03 ± 0.023
GTTTCCTATT	0.959 ± 0.013
GTTTCGTCCA	2.1 ± 1.6
GTTTCTGTTA	0.9574 ± 0.0033
GTTTGCATTT	0.981 ± 0.015
GTTTGCGACT	0.998 ± 0.067
GTTTGCGCAG	1.02 ± 0.018

Sequence	switch fluorescence ratio
GTTTGCTCCC	1.15 ± 0.086
GTTTGCTTAG	0.986 ± 0.024
GTTTGGGGTA	0.986 ± 0.013
GTTTGGGGTC	0.984 ± 0.018
GTTTGGGTAG	1.02 ± 0.034
GTTTGGGTGT	1 ± 0.016
GTTTGGTTGG	1 ± 0.02
GTTTGTAAGC	1.03 ± 0.01
GTTTGTAGTG	1.01 ± 0.026
GTTTGTCTGC	0.963 ± 0.025
GTTTGTCTTT	1.02 ± 0.012
GTTTGTGCGG	0.9811 ± 0.0084
GTTTGTGGTA	0.978 ± 0.011
GTTTGTGGTT	0.988 ± 0.019
GTTTGTGTTC	0.988 ± 0.015
GTTTTAACTT	0.999 ± 0.054
GTTTTAAGGC	1.01 ± 0.058
GTTTTACCGC	1.01 ± 0.018
GTTTTACGTC	0.981 ± 0.047
GTTTTACTGA	1.03 ± 0.021
GTTTTATCCG	1.025 ± 0.0045
GTTTTCAGTA	0.982 ± 0.0022
GTTTTCGCCG	1.03 ± 0.11
GTTTTCGGGG	1.04 ± 0.029
GTTTTCTATG	1 ± 0.021

Sequence	switch fluorescence ratio
GTTTTCTTCA	1.04 ± 0.018
GTTTTGAGAG	0.9595 ± 0.0086
GTTTTGCGTT	0.988 ± 0.028
GTTTTGGAGG	0.9691 ± 0.0043
GTTTTGGGAG	1.02 ± 0.033
GTTTTGGGCC	1.02 ± 0.05
GTTTTGGGGG	1.02 ± 0.025
GTTTTGTAAA	0.975 ± 0.026
GTTTTGTATG	1.004 ± 0.0044
GTTTTTAACG	1.02 ± 0.05
GTTTTTACTG	1.05 ± 0.081
GTTTTTAGCA	0.9719 ± 0.005
GTTTTTATAG	0.992 ± 0.014
GTTTTTCAAG	0.975 ± 0.01
GTTTTTCGGG	0.981 ± 0.034
GTTTTTCGT	1 ± 0.062
GTTTTTCTGT	1.01 ± 0.014
GTTTTTGACA	0.989 ± 0.015
GTTTTTGCTT	1.01 ± 0.032
GTTTTTGGAA	1.05 ± 0.013
GTTTTTGGAC	0.982 ± 0.029
GTTTTTGGAT	0.991 ± 0.0049
GTTTTTGGGG	0.987 ± 0.055
GTTTTTTAAA	0.987 ± 0.04
GTTTTTTTGG	1 ± 0.018

Sequence	switch fluorescence ratio
TAAAAAAACG	1.1 ± 0.021
TAAAAAAGCC	1.03 ± 0.091
TAAAAAATGT	1 ± 0.019
TAAAAAGAGC	0.984 ± 0.022
TAAAAAGGTG	1.12 ± 0.11
TAAAAATAGC	1.024 ± 0.0095
TAAAAATATG	0.9907 ± 0.0013
TAAAAATCAT	1.01 ± 0.034
TAAAAATCGA	0.993 ± 0.0013
TAAAAATGAC	1.07 ± 0.1
TAAAAATGCG	0.951 ± 0.065
TAAAAATTTA	1.01 ± 0.048
TAAAACGCCC	1.15 ± 0.04
TAAAAGACTG	0.992 ± 0.094
TAAAAGGGTC	0.942 ± 0.085
TAAAATAGAG	1 ± 0.035
TAAAATCCTG	1.05 ± 0.039
TAAAATGGAC	1.03 ± 0.028
TAAAATGGCG	1 ± 0.055
TAAAATGGGA	0.981 ± 0.027
TAAAATGTTA	0.985 ± 0.0063
TAAAATGTTT	0.998 ± 0.013
TAAAATTCTT	1.01 ± 0.025
TAAACAATTT	0.978 ± 0.013
TAAACCCTGC	1.07 ± 0.032

Sequence	switch fluorescence ratio
TAAACCGATG	1.21 ± 0.048
TAAACCTGTG	1.05 ± 0.088
TAAACGCCTC	1.08 ± 0.058
TAAACGGGAT	0.999 ± 0.019
TAAACGGGCG	0.983 ± 0.019
TAAACGGGTA	1.04 ± 0.02
TAAAGAACCA	1.016 ± 0.0053
TAAAGAAGGT	1.01 ± 0.033
TAAAGACCGA	1.08 ± 0.048
TAAAGAGAGA	1.03 ± 0.012
TAAAGAGAGC	1.01 ± 0.097
TAAAGAGTCG	1.02 ± 0.063
TAAAGATATC	0.972 ± 0.028
TAAAGCATTA	1.04 ± 0.025
TAAAGCGTAG	0.998 ± 0.027
TAAAGGAAAG	1.02 ± 0.03
TAAAGGAAGG	0.9801 ± 0.0066
TAAAGGATAA	0.9849 ± 0.0093
TAAAGGGGGT	1.01 ± 0.047
TAAAGGTATC	0.9977 ± 0.0048
TAAAGGTCAG	0.996 ± 0.018
TAAAGGTGTA	1 ± 0.026
TAAAGTACGT	1.11 ± 0.021
TAAAGTAGAT	0.988 ± 0.027
TAAAGTATAT	0.9976 ± 0.004

Sequence	switch fluorescence ratio
TAAAGTCCGA	1.014 ± 0.0028
TAAAGTGTTG	1.02 ± 0.024
TAAATAGAAT	1.11 ± 0.1
TAAATATGGG	0.999 ± 0.034
TAAATCAGAG	0.99 ± 0.03
TAAATCGTAG	0.991 ± 0.0099
TAAATCTCTG	1.004 ± 0.0055
TAAATGATTT	1.01 ± 0.014
TAAATGGTCC	1.073 ± 0.0063
TAAATGTCAT	0.998 ± 0.027
TAAATGTGGA	0.972 ± 0.03
TAAATTAGCT	1.02 ± 0.037
TAAATTAGGA	0.988 ± 0.074
TAAATTTATA	0.992 ± 0.021
TAAATTTATT	1.01 ± 0.017
TAAATTTGAC	0.996 ± 0.036
TAACAAGGCA	0.985 ± 0.013
TAACACAGTC	1.04 ± 0.054
TAACACTAGC	1.011 ± 0.0037
TAACAGGTTG	1.02 ± 0.019
TAACCAATTT	1.01 ± 0.018
TAACCCGGTT	0.999 ± 0.042
TAACCGATAT	0.99434 ± 0.00034
TAACCTCGCG	1.04 ± 0.02
TAACGAAAAA	1.03 ± 0.062

Sequence	switch fluorescence ratio
TAACGGACGT	1.01 ± 0.054
TAACGGACTA	1.29 ± 0.023
TAACGGCATC	1.08 ± 0.036
TAACGGCGCG	1.028 ± 0.0024
TAACGGGCTG	1.07 ± 0.054
TAACGGGGTT	0.9826 ± 0.00097
TAACGGTATA	1.11 ± 0.058
TAACGTGGGA	0.996 ± 0.058
TAACGTGGTG	1.05 ± 0.019
TAACTATTT	1 ± 0.046
TAACTCTGAG	0.979 ± 0.015
TAACTGCAGA	1.01 ± 0.038
TAACTTCGTG	1.01 ± 0.031
TAAGAACATT	1.03 ± 0.1
TAAGAAGATT	0.986 ± 0.024
TAAGAAGTCC	0.977 ± 0.045
TAAGAATTCC	1.08 ± 0.047
TAAGACGGGG	1.01 ± 0.034
TAAGAGCGTA	1.0055 ± 0.00049
TAAGAGGAGA	0.987 ± 0.017
TAAGAGGGAG	0.966 ± 0.036
TAAGAGGGTG	1.11 ± 0.016
TAAGAGTATC	1.01 ± 0.019
TAAGATCGGC	0.974 ± 0.017
TAAGATCTGA	1.02 ± 0.051
